{"source": "paper PMC5443830", "target": "Cry1AcMod activated toxin (Bacillus thuringiensis) (UniProt P05068)", "experiment": "SDS-PAGE and western blot of the 200 kDa oligomer band"}
{"substance": "Cry1AcMod activated toxin (from UniProt P05068 1-1178) (domain or fragment)", "values": [{"measurement": "optical density of the 200 kDa oligomer band with BBMV from the resistant strain relative to BBMV from the susceptible strain (=100%)", "result": 100, "unit": "%"}]}
